Blank lines part the entries; values can stand above or below the substance they belong to.
Columns and labels:
[1] = target: P. aeruginosa CpoB lacking its periplasmic export sequence (residues 22-274) (P. aeruginosa PA01); assay: SEC; PaCpoB alone, last step of its purification, procedure as for LpoP
[2] = target: P. aeruginosa PBP1B (P. aeruginosa PA01)
[3] = target: P. aeruginosa PBP1B (P. aeruginosa PA01); assay: SPR; PaPBP1B immobilised on a GLC amine coupling sensorchip (BioRad ProteOn XPR36); analyte in 1:1 serial dilution from 10 μM to 19.5 nM; 25°C; 75 μL/min, 5 min injection; 10 mM Tris/HCl, 150 mM NaCl, 0.05% Triton X-100, pH 7.5; response at equilibrium, non-linear regression assuming one-site saturation
[4] = target: biotin-labeled UB2H domain of P. aeruginosa PBP1B (P. aeruginosa); assay: BLI; UB2H-Biot (25 μg/ml) immobilised on streptavidin biosensors (OctetRED96e); LpoP 0 to 6 μM; HBS-T (10 mM Hepes pH 7.5, 150 mM NaCl, 0.02% Tween); 23°C; responses at equilibrium of two series fitted together
biotin-labeled UB2H domain of P. aeruginosa PBP1B (P. aeruginosa), sequence (main, as listed by the source): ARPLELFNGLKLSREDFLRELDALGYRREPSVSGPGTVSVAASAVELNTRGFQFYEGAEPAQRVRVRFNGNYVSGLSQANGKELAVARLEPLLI

stoichiometry N [1]: 3
Substance: P. aeruginosa CpoB lacking its periplasmic export sequence (residues 22-274) (natural protein)

Substance: LpoP lacking its lipoprotein sorting sequence (residues 20-259) (natural protein)
GTase rate of PaPBP1B with and without LpoP (continuous fluorescence assay, 0.5 μM PaPBP1B, 10 μM LpoP, 37°C) [2]: 4.5 fold | transpeptidation products made by PaPBP1B with and without LpoP (endpoint TPase assay with radiolabelled lipid II, 10 μM LpoP, 37°C, 3 h) [2]: 2 fold | Kd [3]: 4.2 µM

Kd [4]: 0.4 µM
Substance: LpoP (residues 20-259), preparation for NMR and BLI (natural protein)

Source: paper PMC7267771
